According to article PMC3144404:

Molecular target: actin, endogenous (human (endogenous in myoblasts and myotubes from human muscle biopsies)) (UniProt P60709)
Test: co-IP

## STIM1L (long splice variant of stromal interaction molecule 1), endogenous (from UniProt Q13586-2 23-540) (natural protein)
  percent of input immunoprecipitated: 87%
